Source: the supplement of paper PMC10567573

B1: RAD51 (parent)
chain: APKKELINIKGISEAKADKILAEA
B2: TMEM175 (parent)
chain: QTSAFARQPRDELERVRVSCTIIF

Variants of: B1
Assay: protein stability index of a GFP-peptide fusion (GPS, HEK-293T) (PSI 1-6); higher = more stable
Details: c terminus: a fixed tail appended
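Also: lentivirally expressed fusions sorted by FACS into six bins by GFP to DsRed ratio, PSI derived from sequencing read proportions per bin multiplied by bin number.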

| Variant | protein stability index |
| --- | --- |
| APKKELINIKGISEAKAYKILAEA | 2.63 |
| APKKELINIKGISEAKAHKILAEA | 4.29 |
| APKKELINIKGISEAKAMKILAEA | 3.31 |
| APKKELINIKGISEAKATKILAEA | 4.04 |
| APKKELINIKGISEAKAFKILAEA | 2.59 |
| APKKELINIKGISENKADKILAEA | 4.36 |
| APKKELINIKGISEYKADKILAEA | 3.58 |
| APKKELINIKGISETKADKILAEA | 5.07 |
| DPKKELINIKGISEAKADKILAEA | 4.31 |
| FPKKELINIKGISEAKADKILAEA | 3.87 |
| KPKKELINIKGISEAKADKILAEA | 4.84 |
| VPKKELINIKGISEAKADKILAEA | 4.08 |
| YPKKELINIKGISEAKADKILAEA | 3.83 |
| EPKKELINIKGISEAKADKILAEA | 5.23 |
| APKKELINIKGISEAKADKILAET | 5.36 |
| APKKELINIKGISEAKADKILAEY | 3.76 |
| APKKELINIKGISEAKADKILAED | 4.83 |
| APKKELINIKGISEAKADKILAEQ | 5.1 |
| APKKELINIKGISEAKADKILAES | 4.75 |
| APKKELINIKGISEAKADHILAEA | 4.3 |
| APKKELINIKGISEAKADCILAEA | 4.44 |
| APKKEKINIKGISEAKADKILAEA | 5 |

| Variant | protein stability index |
| --- | --- |
| APKKETINIKGISEAKADKILAEA | 5.06 |
| APKKEAINIKGISEAKADKILAEA | 5.16 |
| APKKALINIKGISEAKADKILAEA | 4.12 |
| APKKSLINIKGISEAKADKILAEA | 4.34 |
| APLKELINIKGISEAKADKILAEA | 3.3 |
| APIKELINIKGISEAKADKILAEA | 4.77 |
| APPKELINIKGISEAKADKILAEA | 4.83 |
| APVKELINIKGISEAKADKILAEA | 5.06 |
| APYKELINIKGISEAKADKILAEA | 3.85 |
| APKKELINIKGISEAKFDKILAEA | 3.73 |
| APKKELINIKGISEAKWDKILAEA | 3.98 |
| APKKELINIKGISEAKSDKILAEA | 5 |
| APKKELINIKGISEAKVDKILAEA | 4.53 |
| APKKELINIKGISEASADKILAEA | 4.61 |
| APKKELINIKGISEAWADKILAEA | 1.64 |
| APKKELINIKGISTAKADKILAEA | 4.43 |
| APKKELINIKGISQAKADKILAEA | 4.76 |
| APKKELINIKGITEAKADKILAEA | 5.02 |
| APKKELINIKGIFEAKADKILAEA | 3.73 |
| APKKELINIKGIPEAKADKILAEA | 4.88 |
| APKKELINIKGIAEAKADKILAEA | 4.97 |
| APKKELINIKGIWEAKADKILAEA | 4.12 |

| Variant | protein stability index |
| --- | --- |
| APKKELINIKGGSEAKADKILAEA | 4.69 |
| APKKELINIKGRSEAKADKILAEA | 5.14 |
| APKKELINIKGQSEAKADKILAEA | 5.33 |
| APKKELINIKGISEAKADKILAYA | 3.37 |
| APKKELINIKGISEAKADKILARA | 3.85 |
| APKKELINIKGISEAKADKILIEA | 4.25 |
| APKKELINIKGISEAKADKILSEA | 4.61 |
| APKKELINIKGISEAKADKILYEA | 3.8 |
| APKIELINIKGISEAKADKILAEA | 4.25 |
| APKGELINIKGISEAKADKILAEA | 4.57 |
| APKKELINTKGISEAKADKILAEA | 5.24 |
| APKKELINIKGISEAKADKALAEA | 5.03 |
| APKKELINIKGISEAKADKELAEA | 5.33 |
| APKKELINIKGISEAKADKYLAEA | 4.61 |
| APKKELINIKGISEAKADKLLAEA | 4.86 |
| APKKELINIKGISEAKADKGLAEA | 5.1 |
| APKKELININGISEAKADKILAEA | 4.42 |
| APKKELINIDGISEAKADKILAEA | 5.12 |
| APKKELINIRGISEAKADKILAEA | 4.2 |
| APKKELINITGISEAKADKILAEA | 4.68 |
| APKKELINIQGISEAKADKILAEA | 4.46 |
| APKKELINIKGISEAKADKIMAEA | 4.98 |

| Variant | protein stability index |
| --- | --- |
| APKKELINIKGISEAKADKIPAEA | 5.21 |
| APKKELINIKGISEAKADKIKAEA | 5.2 |
| APKKELINIKGISEAKADKINAEA | 5.02 |
| APKKELINIKGISEAKADKITAEA | 5.25 |
| APKKELINIKGISEAKADKIHAEA | 4.95 |
| APKKELINIKHISEAKADKILAEA | 4.8 |
| APKKELINIKKISEAKADKILAEA | 4.68 |
| APKKELINIKYISEAKADKILAEA | 4.18 |
| ATKKELINIKGISEAKADKILAEA | 4.6 |
| AIKKELINIKGISEAKADKILAEA | 4.01 |
| AHKKELINIKGISEAKADKILAEA | 4.85 |
| AEKKELINIKGISEAKADKILAEA | 4.7 |
| APKKELILIKGISEAKADKILAEA | 3.5 |
| APKKELIHIKGISEAKADKILAEA | 4.69 |
| APKKELSNIKGISEAKADKILAEA | 5.52 |
| APKKELQNIKGISEAKADKILAEA | 4.83 |
| APKKELGNIKGISEAKADKILAEA | 4.8 |
| APKKELMNIKGISEAKADKILAEA | 4.99 |
| APKKELDNIKGISEAKADKILAEA | 5.31 |

Variants of: B2
Assay: as above
Details: c terminus: a fixed tail appended

| Variant | protein stability index |
| --- | --- |
| QTSAFARQPRDELERVRVNCTIIF | 3.03 |
| QTSAFARQPRDELERVRVYCTIIF | 1.65 |
| QTSAFARQPRDELERVRVHCTIIF | 2.13 |
| QTSAFARQPRDELERVRVICTIIF | 1.73 |
| QTSAFARQPRDELERVRVCCTIIF | 1.97 |
| QTSAFARQPRDELERVRVVCTIIF | 1.99 |
| QTSAFARQPRDELERVRVACTIIF | 1.55 |
| QTSAFARQPRDELERVRVQCTIIF | 2.37 |
| QTSAFARQPRDELERVRVPCTIIF | 1.6 |
| QTSAFARQPRDELERVRVMCTIIF | 2.94 |
| QTSAFARQPRDELERVRVTCTIIF | 3.22 |
| QTSAFARQPRDELERVRVLCTIIF | 1.78 |
| QTSAFARQPRDELERVRVGCTIIF | 2.74 |
| QTSAFARQPRDELERVRVWCTIIF | 1.39 |
| QTSAFARQPRDELERVRVRCTIIF | 1.84 |
| QTSAFARQPRDELERVRVFCTIIF | 1.57 |
| QTSAFARQPRDELERVRVSCTIGF | 2.83 |
| QTSAFARQPRDELERVRVSCTISF | 2.69 |
| QTSAFARQPRDELERVRVSCTIDF | 2.81 |
| QTSAFARQPRDELERVRVSCTIAF | 2.06 |
| QTSAFARQPRDELERVRVSCTICF | 1.67 |
| QTSAFARQPRDELERVRVSCTIPF | 3.13 |
| QTSAFARQPRDELERVRVSCTIMF | 2.91 |
| QTSAFARQPRDELERVRVSCTIVF | 3.26 |
| QTSAFARQPRDELERVRVSCTIHF | 2.56 |
| QTSAFARQPRDELERVRVSCTIFF | 3.33 |

| Variant | protein stability index |
| --- | --- |
| QTSAFARQPRDELERVRVSCTIEF | 1.57 |
| QTSAFARQPRDELERVRVSCTILF | 1.82 |
| QTSAFARQPRDELERVRVSCTIQF | 1.79 |
| QTSAFARQPRDELERVRVSCTINF | 2.37 |
| QTSAFARQPRDELERVRVSCTIKF | 2.07 |
| QTSAFARQPRDELERVRVSCTIYF | 2.6 |
| QTSAFARQPRDELERVRVSCTIRF | 2.21 |
| QTSAFARQPRDELERVRVSITIIF | 2.61 |
| QTSAFARQPRDELERVRVSKTIIF | 1.95 |
| QTSAFARQPRDELERVRVSYTIIF | 1.83 |
| QTSAFARQPRDELERVRVSVTIIF | 1.83 |
| QTSAFARQPRDELERVRVSHTIIF | 1.57 |
| QTSAFARQPRDELERVRVSDTIIF | 2.53 |
| QTSAFARQPRDELERVRVSQTIIF | 2.42 |
| QTSAFARQPRDELERVRVSGTIIF | 1.56 |
| QTSAFARQPRDELERVRVSNTIIF | 2.57 |
| QTSAFARQPRDELERVRVSFTIIF | 2.07 |
| QTSAFARQPRDELERVRVSWTIIF | 2.42 |
| QTSAFARQPRDELERVRVSRTIIF | 3.05 |
| QTSAFARQPRDELERVRVSSTIIF | 1.94 |
| QTSAFARQPRDELERVRVSATIIF | 2.33 |
| QTSAFARQPRDELERVRVSPTIIF | 1.78 |
| QTSAFARQPRDELERVRVSETIIF | 2.22 |
| QTSAFARQPRDELERVRVSTTIIF | 1.51 |
| QTSAFARQPRDELERVRVSCRIIF | 1.52 |
| QTSAFARQPRDELERVRVSCHIIF | 2.12 |

| Variant | protein stability index |
| --- | --- |
| QTSAFARQPRDELERVRVSCEIIF | 1.76 |
| QTSAFARQPRDELERVRVSCLIIF | 2.64 |
| QTSAFARQPRDELERVRVSCFIIF | 2.01 |
| QTSAFARQPRDELERVRVSCPIIF | 2.06 |
| QTSAFARQPRDELERVRVSCYIIF | 1.34 |
| QTSAFARQPRDELERVRVSCGIIF | 2.91 |
| QTSAFARQPRDELERVRVSCAIIF | 2 |
| QTSAFARQPRDELERVRVSCDIIF | 2.72 |
| QTSAFARQPRDELERVRVSCMIIF | 2.77 |
| QTSAFARQPRDELERVRVSCQIIF | 1.58 |
| QTSAFARQPRDELERVRVSCKIIF | 1.66 |
| QTSAFARQPRDELERVRVSCNIIF | 2.7 |
| QTSAFARQPRDELERVRVSCSIIF | 2.3 |
| QTSAFARQPRDELERVRVSCIIIF | 2.63 |
| QTSAFARQPRDELERVRVSCCIIF | 2.27 |
| QTSAFARQPRDELERVRVSCTIID | 3.47 |
| QTSAFARQPRDELERVRVSCTIIQ | 2.56 |
| QTSAFARQPRDELERVRVSCTIIM | 2.35 |
| QTSAFARQPRDELERVRVSCTIIP | 2.78 |
| QTSAFARQPRDELERVRVSCTIIW | 1.21 |
| QTSAFARQPRDELERVRVSCTIIA | 2.02 |
| QTSAFARQPRDELERVRVSCTIIG | 2.12 |
| QTSAFARQPRDELERVRVSCTIIE | 3.76 |
| QTSAFARQPRDELERVRVSCTIIL | 2.47 |
| QTSAFARQPRDELERVRVSCTIIC | 2.66 |
| QTSAFARQPRDELERVRVSCTIIT | 1.64 |

| Variant | protein stability index |
| --- | --- |
| QTSAFARQPRDELERVRVSCTIIK | 3.15 |
| QTSAFARQPRDELERVRVSCTIIS | 2.46 |
| QTSAFARQPRDELERVRVSCTIIH | 2.01 |
| QTSAFARQPRDELERVRVSCTIIY | 2.08 |
| QTSAFARQPRDELERVRVSCTIIN | 2.48 |
| QTSAFARQPRDELERVRVSCTIIR | 2.37 |
| QTSAFARQPRDELERVRVSCTRIF | 2.42 |
| QTSAFARQPRDELERVRVSCTYIF | 1.69 |
| QTSAFARQPRDELERVRVSCTEIF | 2.91 |
| QTSAFARQPRDELERVRVSCTVIF | 2.17 |
| QTSAFARQPRDELERVRVSCTSIF | 2.28 |
| QTSAFARQPRDELERVRVSCTGIF | 2.94 |
| QTSAFARQPRDELERVRVSCTPIF | 3.2 |
| QTSAFARQPRDELERVRVSCTKIF | 3.06 |
| QTSAFARQPRDELERVRVSCTLIF | 2.49 |
| QTSAFARQPRDELERVRVSCTMIF | 1.88 |
| QTSAFARQPRDELERVRVSCTAIF | 1.99 |
| QTSAFARQPRDELERVRVSCTWIF | 2.02 |
| QTSAFARQPRDELERVRVSCTNIF | 3.05 |
| QTSAFARQPRDELERVRVSCTHIF | 2.72 |
| QTSAFARQPRDELERVRVSCTFIF | 1.65 |
| QTSAFARQPRDELERVRVSCTQIF | 2.62 |
| QTSAFARQPRDELERVRVSCTDIF | 3.54 |
| QTSAFARQPRDELERVRVSCTCIF | 2.08 |
| QTSAFARQPRDELERVRVSCTTIF | 2.71 |
